Test results reported in patent publication US5811533, “High-affinity oligonucleotide ligands to vascular endothelial growth factor (VEGF)” (NeXstar Pharmaceuticals, Inc.).

Columns and labels:
[1] = target: T1, VEGF165 (recombinant human vascular endothelial growth factor, 165 aa form) (Homo sapiens, UniProt P15692-4 P15692-4:27-191); assay: FP filter; nitrocellulose filter; Kd1, X1 0.62, Kd2 ~100 nM; conditions: tags: gift from N. Ferrara, Genentech; chain copies: 2 (dimer, stated)
[2] = target: T1, VEGF165 (recombinant human vascular …); assay: filter; Kd1, X1 0.77, Kd2 10-100 nM; conditions: tags: gift from N. Ferrara, Genentech; chain copies: 2 (dimer, stated)
[3] = target: T1, VEGF165 (recombinant human vascular …); assay: inhibition; VEGF receptor binding; conditions: tags: gift from N. Ferrara, Genentech; chain copies: 2 (dimer, stated)
Protocol: VEGF was radioiodinated by the Iodegen method (Jakeman et al. (1992) J. Clin. Invest. 89:244) to a specific activity of 2.4×10^4 cpm/ng. Human umbilical vein endothelial cells (HUVECs) were plated in 24-well plates at a density of 1–2×10^5 cells/well and grown to confluence in EGM (Clonetics, San Diego, Calif.) media (24–48 hrs). At confluence, the cells were washed 3 times with PBS and incubated for 2 hrs at 4° C. in α-MEM serum-free media containing ^125I-labeled VEGF with or without unlabeled competitor (VEGF, EGF, or RNA). For experiments done with RNA, 0.2 units of placental RNase inhibitor (Promega, Madison, Wis.) were included in the media. […] At the end of the 2 hr incubation period, the supernatant was removed and the wells washed 2 times with PBS. HUVECs were then lysed with 1% triton X-100/1M NaOH and the amount of cell-associated ^125I-VEGF determined by gamma counting.
(§1) To this end, certain ligands were synthesized and tested for binding affinity. The binding studies were performed using the protocols described in Example 1.

[4] = target: T1, VEGF165 (recombinant human vascular …); assay: filter; conditions: tags: gift from N. Ferrara, Genentech; chain copies: 2 (dimer, stated)
Protocol: (§2) Internally-labeled RNA ligands used for binding studies were prepared by in vitro transcription using T7 RNA polymerase (Milligan et al. (1987) Nucl. Acids Res. 15:8783) and were purified on denaturing polyacrylamide gels to ensure size homogeneity. All RNA ligands were diluted to about 1 nM in PBS, denatured at 90° C. for 2 minutes, and then cooled on ice prior to incubation with the protein. This denaturation/renaturation cycle performed at high dilution is necessary to ensure that the RNA is essentially free from dimers and other higher order aggregates. Concentrations of the stock solutions of VEGF, from which other dilutions were made, were determined from the absorbance reading at 280 nm using the calculated value for ε280 of 46,600 M^-1cm^-1 for the VEGF dimer (Gill et al. (1989) Anal. Biochem. 182:319). Data sets that define the binding curves were fit to either eq. 2 or eq. 5 by the non-linear least squares method using the software package Kaleidagraph (Synergy Software, Reading, Pa.).
as §1

[5] = target: T1, VEGF165 (recombinant human vascular …); assay: filter; clone listed in families 1 and 2; conditions: tags: gift from N. Ferrara, Genentech; chain copies: 2 (dimer, stated)
[6] = target: T1, VEGF165 (recombinant human vascular …); assay: filter; Kd1, X1 0.74, Kd2 ~100 nM; conditions: tags: gift from N. Ferrara, Genentech; chain copies: 2 (dimer, stated)
antithrombin III = antithrombin III (UniProt P01008 P01008:33-464); assay: filter; specificity; conditions: label: 32P
Chain of antithrombin III (P01008 33-464, one chain of several): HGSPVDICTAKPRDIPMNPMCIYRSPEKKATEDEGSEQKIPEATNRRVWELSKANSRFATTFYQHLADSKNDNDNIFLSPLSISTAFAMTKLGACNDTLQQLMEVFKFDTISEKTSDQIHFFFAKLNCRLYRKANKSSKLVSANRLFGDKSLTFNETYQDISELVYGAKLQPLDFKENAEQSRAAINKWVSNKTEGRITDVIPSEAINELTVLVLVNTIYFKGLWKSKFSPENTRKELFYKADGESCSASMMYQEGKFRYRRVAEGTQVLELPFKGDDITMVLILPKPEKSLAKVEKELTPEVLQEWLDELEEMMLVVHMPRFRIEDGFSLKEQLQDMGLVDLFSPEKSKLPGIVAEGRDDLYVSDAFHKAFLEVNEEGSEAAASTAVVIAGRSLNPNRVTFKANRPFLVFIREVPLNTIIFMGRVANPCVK
Protocol: (§3) Dissociation constants were determined using the nitrocellulose filter partitioning technique.

bFGF = bFGF (UniProt P09038 P09038:143-288); assay: filter; specificity; conditions: label: 32P
Chain of bFGF (P09038 143-288, one chain of several): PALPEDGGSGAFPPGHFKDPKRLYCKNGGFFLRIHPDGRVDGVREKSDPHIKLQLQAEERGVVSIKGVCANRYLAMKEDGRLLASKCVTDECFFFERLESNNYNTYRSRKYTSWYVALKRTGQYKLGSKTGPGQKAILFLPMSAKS
Protocol: as §3

[7] = target: T1, VEGF165 (recombinant human vascular …); assay: filter; PBS, 0.01% HSA, 37 C; Kd1, X1 0.76, Kd2 182 nM; conditions: tags: gift from N. Ferrara, Genentech; chain copies: 2 (dimer, stated); label: 32P
Protocol: as §2, with “Pa.). […]” for “Pa.).”

[8] = target: T1, VEGF165 (recombinant human vascular …); assay: filter; Kd1, X1 0.50, Kd2 15 nM; conditions: tags: gift from N. Ferrara, Genentech; chain copies: 2 (dimer, stated)
[9] = target: T1, VEGF165 (recombinant human vascular …); assay: filter; PBS, 0.01% HSA, 37 C; Kd1, X1 0.73, Kd2 82 nM; conditions: tags: gift from N. Ferrara, Genentech; chain copies: 2 (dimer, stated); label: 32P
Protocol: as §2, with “Pa.). […]” for “Pa.).”

[10] = target: T1, VEGF165 (recombinant human vascular …); assay: filter; PBS, 0.01% HSA, 37 C; Kd1, X1 0.56, Kd2 21 nM; conditions: tags: gift from N. Ferrara, Genentech; chain copies: 2 (dimer, stated); label: 32P
Protocol: as §2, with “Pa.). […]” for “Pa.).”

[11] = target: T1, VEGF165 (recombinant human vascular …); assay: filter; Kd1, X1 0.42, Kd2 ~100 nM; conditions: tags: gift from N. Ferrara, Genentech; chain copies: 2 (dimer, stated)
[12] = target: T1, VEGF165 (recombinant human vascular …); assay: filter; Kd1, X1 0.79, Kd2 ~100 nM; conditions: tags: gift from N. Ferrara, Genentech; chain copies: 2 (dimer, stated)
[13] = target: T1, VEGF165 (recombinant human vascular …); assay: filter; Kd1, X1 0.82, Kd2 10-100 nM; conditions: tags: gift from N. Ferrara, Genentech; chain copies: 2 (dimer, stated)
[14] = target: T1, VEGF165 (recombinant human vascular …); assay: filter; PBS, 0.01% HSA, 37 C; Kd1, X1 0.45, Kd2 21 nM; conditions: tags: gift from N. Ferrara, Genentech; chain copies: 2 (dimer, stated); label: 32P
Protocol: as §2, with “Pa.). […]” for “Pa.).”

[15] = target: T1, VEGF165 (recombinant human vascular …); assay: filter; Kd1, X1 0.68, Kd2 ~100 nM; conditions: tags: gift from N. Ferrara, Genentech; chain copies: 2 (dimer, stated)
[16] = target: T1, VEGF165 (recombinant human vascular …); assay: filter; PBS, 0.01% HSA, 37 C; Kd1, X1 0.76, Kd2 180 nM; conditions: tags: gift from N. Ferrara, Genentech; chain copies: 2 (dimer, stated); label: 32P; bulged hairpin
Protocol: as §2, with “Pa.). […]” for “Pa.).”

[17] = target: T1, VEGF165 (recombinant human vascular …); assay: filter; PBS, 0.01% HSA, 37 C; Kd1, X1 0.54, Kd2 181 nM; conditions: tags: gift from N. Ferrara, Genentech; chain copies: 2 (dimer, stated); label: 32P
Protocol: as §2, with “Pa.). […]” for “Pa.).”

[18] = target: T1, VEGF165 (recombinant human vascular …); assay: filter; PBS, 0.01% HSA, 37 C; Kd1, X1 0.40, Kd2 11 nM; conditions: tags: gift from N. Ferrara, Genentech; chain copies: 2 (dimer, stated); label: 32P
Protocol: as §2, with “Pa.). […]” for “Pa.).”

T1 sequence (P15692 other isoform, or with tags, fused parts or gaps): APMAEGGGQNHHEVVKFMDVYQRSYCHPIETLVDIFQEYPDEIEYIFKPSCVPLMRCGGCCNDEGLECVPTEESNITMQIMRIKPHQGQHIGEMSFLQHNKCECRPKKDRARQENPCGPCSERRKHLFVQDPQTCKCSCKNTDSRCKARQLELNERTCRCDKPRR

B1: 17B (ssRNA)
RNA: GGGAGGACGAUGCGGCGCUGUGUUCAAUGCGGGGAUCGGGCCGGAGGAUGAACAAAUGGCGGGUCAGACGACUCGCCCGA
modifications: 2'-NH2 pyrimidines
How did the Kd [1] turn out when B1 was run?
Its Kd is 0.028 nM.

B2: 30B (ssRNA)
RNA: GGGAGGACGAUGCGGCAUGGUUGUGAACUGUUGUGAUCAAUGCGGGGAGGGUAAUGGUGGGUGGUCAGACGACUCGCCCGA
modifications: 2'-NH2 pyrimidines
Which Kd [2] does the source give for B2 here?
The Kd was 0.034 nM.

B3: NX-214 (mixed)
mixed: TTTTACCCUGAUGGUAGACGCCGGGGUGTTTTT
modifications: 2'-NH2/2'-OMe variant (position code lost in text); 5' and 3' phosphorothioate thymidine caps
What does the source list for B3?
Ki [3]: 1 nM; Kd [4]: 0.2 nM

With TTTTACCCUGAUGGUAGACGCCGGGGUGTTTTT (mixed, as NX-213 plus internal phosphorothioate between A7 and U8) [NX-215] as the binder, how does the Ki [3] read?
Its Ki is 1 nM.

What about the Kd [4] of the same binder?
Its Kd is 0.2 nM.

B4: ssDNA b81 (ssDNA)
DNA: CTACCTACGATCTGACTAGCCCGAATGGGGCTGCGACTGCAGTGGACGTCACGTCGTTAGCTTACTCTCATGTAGTTCCT
Which Kd [5] does the source give for B4 here?
Its Kd is 0.3 nM.

B5: 26B (ssRNA)
RNA: GGGAGGACGAUGCGGCACCUUCGUGGGGUCAAGGAGGGUCGCGAGGCCGCAGGAUCAACCGUGUGCAGACGACUCGCCCGA
modifications: 2'-NH2 pyrimidines
B5 was tested. Which Kd [6] did it give?
Its Kd is 0.37 nM.

What does the source list for GGCCGGUAGUCGCAUGGCCCAUCGCGCCCGG (ssRNA) [ligand 100t]?
Kd (antithrombin III): 3000 nM; Kd (bFGF): 1000 nM; Kd [7]: 0.42 nM

B6: 32B (ssRNA)
RNA: GGGAGGACGAUGCGGCAACAUUGGCACCAAUGCUCUGUGUUAAUGUGGGGUGGGAACGGCGCCGCAGACGACUCGCCCGA
modifications: 2'-NH2 pyrimidines
B6 was tested. Which Kd [8] did it give?
The Kd was 0.05 nM.

Which results are given for GGAAGCUUGAUGGGUGACACACGUCAUGCCGAGCU (ssRNA) [ligand 44t]?
Kd (antithrombin III): 12000 nM; Kd (bFGF): 600 nM; Kd [9]: 0.48 nM

B7: ligand 12 (ssRNA)
RNA: GGGAGCUCAGAAUAAACGCUCAAGCAGACGAAGGGAACCUGCGUCUCGGCACCUUCGACAUGAGGCCCGGAUCCGGC
For B7, which Kd [10] is on record?
Its Kd is 0.48 nM.

B8: 14A (ssRNA)
RNA: GGGAGACAAGAAUAACGCUCAAGCAACAGAGGCUGAUGGUAGACGCCGGCCAUUCGACAGGAGGCUCACAACAGGC
modifications: 2'-NH2 pyrimidines
With B8 as the binder, how does the Kd [11] read?
The Kd was 0.7 nM.

B9: NX-178 (mixed)
mixed: B3 mixed
modifications: 2'-NH2 pyrimidines; 5' T*T*T*T* and 3' T*T*T*T*T phosphorothioate thymidine caps
Which results are given for B9?
Ki [3]: 1 nM; Kd [4]: 0.7 nM

B10: 24A (ssRNA)
RNA: GGGAGACAAGAAUAACGCUCAACCCUGAUGGUAGACGCCGGGGUGCCGGAAUUCGACAGGAGGCUCACAACAGGC
modifications: 2'-NH2 pyrimidines
B10 was tested. Which Kd [12] did it give?
Its Kd is 0.71 nM.

B11: 34B (ssRNA)
RNA: GGGAGGACGAUGCGGUGUGGUCAAUGUGGGGUAGGGCUGGUAGGGCAUUCCGUACUGGUGUGGUCAGACGACUCGCCCGA
modifications: 2'-NH2 pyrimidines
For B11, which Kd [13] is on record?
Its Kd is 0.068 nM.

B12: ligand 84 (ssRNA)
RNA: GGGAGCUCAGAAUAAACGCUCAAUAGUUGGAGGCCUGUCCUCGCCGUAGAGCGUUCGACAUGAGGCCCGGAUCCGGC
For B12, which Kd [14] is on record?
The Kd was 0.82 nM.

B13: 41A (ssRNA)
RNA: GGGAGACAAGAAUAACGCUCAAAACGGAGUGGUAGGCGUUGGGUGCCAGGAAUUCGACAGGAGGCUCACAACAGGC
modifications: 2'-NH2 pyrimidines
With B13 as the binder, how does the Kd [15] read?
Its Kd is 0.86 nM.

For GGAAGGGAACCUGCGUCUCGGCACCUUCG (ssRNA) [ligand 12t], which Kd [16] is on record?
The Kd was 1.1 nM.

For GGAACGGUUCUGUGUGUGGACUAGCCGCGGCCGUU (ssRNA) [ligand 126t], which Kd [17] is on record?
Its Kd is 1.4 nM.

B14: ligand 126 (ssRNA)
RNA: GGGAGCUCAGAAUAAACGCUCAAACGGUUCUGUGUGUGGACUAGCCGCGGCCGUUCGACAUGAGGCCCGGAUCCGGC
With B14 as the binder, how does the Kd [18] read?
The Kd was 0.14 nM.

With ACCCUGAUGGUAGACGCCGGGGUG (ssRNA, modified variant of NX-107 (position code lost in text)) [NX-176] as the binder, how does the Ki [3] read?
Its Ki is 10 nM.

And the Kd [4]?
Its Kd is 65 nM.

How did the Ki [3] turn out when TTTTACCCUGAUGGUAGACGCCGGGGUGTTTTT (mixed, all 2'-OMe core; 5' and 3' phosphorothioate thymidine caps) [NX-191] was run?
The Ki was 500 nM.

What about the Kd [4] of the same binder?
Its Kd is 120 nM.

B15: NX-213 (mixed)
mixed: B3 mixed
modifications: 2'-NH2 pyrimidines; all purines 2'-OMe except four; 5' and 3' phosphorothioate thymidine caps
How did the Ki [3] turn out when B15 was run?
Its Ki is 1 nM.

And the Kd [4]?
Its Kd is 0.2 nM.
